From US20190142971A1, “FORMULATION AND DELIVERY OF MODIFIED NUCLEOSIDE, NUCLEOTIDE, AND NUCLEIC ACID COMPOSITIONS” (ModernaTX, Inc., priority 2013, published 2019)
Like-named read-outs stand apart in the source and are kept apart here.

Key:
Balb-C mice = test: Example 79: fibrin sealant (Tisseel) with luciferase mRNA SC in mice, total flux (Tables 119, 120); format: in vivo; details: subcutaneous
Method: The thrombin and fibrinogen components were loaded separately into a dual barreled syringe. […] The injection of fibrinogen and thrombin was done simultaneously using the dual-barreled syringe. The subcutaneous injection of luciferase was done 15 minutes after the fibrinogen/thrombin injection to allow the fibrin hydrogel to polymerize (Tisseel+Luciferase group). A control group of untreated mice were also evaluated. The mice were imaged at 5 hours and 24 hours. Twenty minutes prior to imaging, mice were injected intraperitoneally with a D-luciferin solution at 150 mg/kg. Animals were then anesthetized and images were acquired with an IVIS Lumina II imaging system (Perkin Elmer). Bioluminescence was measured as total flux (photons/second) of the entire mouse.

mice [1] = test: Example 48: split dose study EPO mmRNA IM in mice, serum EPO, dose splitting factor (Table 79); format: in vivo
Method: The dosing vehicle (F. buffer) consisted of 150 mM NaCl, 2 mM CaCl2), 2 mM Natphosphate (1.4 mM monobasic sodium phosphate; 0.6 mM dibasic sodium phosphate), and 0.5 mM EDTA, pH 6.5. The pH was adjusted using sodium hydroxide and the final solution was filter sterilized.
Animals (n=5) were injected IM (intramuscular) for the single unit dose of 100 ug. For multi-dosing, two schedules were used, 3 doses of 100 ug and 6 doses of 100 ug. For the split dosing scheme, two schedules were used, 3 doses at 33.3 ug and 6 doses of 16.5 ug mmRNA. Control dosing involved use of buffer only at 6 doses. […] Blood and muscle tissue were evaluated 13 hrs post injection.
Human EPO protein was measured in mouse serum 13 h post I.M. single, multi- or split dosing of the EPO mmRNA in buffer. Seven groups of mice (n=5 mice per group) were treated and evaluated.
The splitting factor is defined as the product per unit drug divided by the single dose product per unit drug (PUD). For example for treatment group 2 the value 0.28 or product (EPO) per unit drug (mmRNA) is divided by the single dose product per unit drug of 0.14. The result is 2. Likewise, for treatment group 4, the value 1.1 or product (EPO) per unit drug (mmRNA) is divided by the single dose product per unit drug of 0.14. The result is 7.9. Consequently, the dose splitting factor (DSF) may be used as an indicator of the efficacy of a split dose regimen. For any single administration of a total daily dose, the DSF should be equal to 1. Therefore any DSF greater than this value in a split dose regimen is an indication of increased efficacy.

human PBMC = test: Example 45: PBMC transfection, IFN-alpha ELISA (Table 72); format: cell-based
Method: The plates were then incubated at 37 C.
Each condition was done in duplicate.
Shown in Tables 71 and 72 are the average from 2 separate PBMC donors of the G-CSF and IFN-alpha production over time as measured by specific ELISA.

mice [2] = details: for Serum Concentration 8-12 hours after administration: G-CSF; for G-CSF Protein Expression, Conc: LNP IV, mice, 8 hrs
BJ fibroblasts = details: for IFN-beta / IL-6: 250 ng transfected daily for 5 days
C57/BL6 mice = test: Example 32B: human G-CSF lipoplex IM, SC, IV in mice, serum G-CSF ELISA at 6 hours (Table 56); format: in vivo; details: serum 6 hours after administration
Method: 6 hours after administration of a formulation, serum was collected from each mouse to measure the amount of human G-CSF protein in the mouse serum by human G-CSF ELISA and the results are shown in Table 56.

mice [3] = test: Example 41: IV lipoplexed G-CSF mRNA in mice, neutrophil count (Table 66); format: in vivo; details: IV 10% lipoplex, 50 ug at days 0, 2, 4; day 5
Method: Neutrophils were measured at days 1, 5 and 8. Controls included non-specific mammalian RNA or the formulation buffer alone (F.Buffer). The mice were bled at days 1, 5 and 8 to determine the effect of mRNA-encoded human G-CSF to increase neutrophil count. The dosing regimen is shown in Table 66 as are the resulting neutrophil counts (thousands/uL; K/uL).

[4] = Example 61: storage stability of G-CSF mRNA, gel electrophoresis (Bio-Rad EXPERION); format: physicochemical
Method: Stability experiments were conducted to obtain a better understanding of storage conditions to retain the integrity of modified RNA. […] After the mRNA had been stored for 0 hours, 2 hours, 6 hours, 24 hours, 48 hours, 5 days and 14 days, the mRNA was analyzed by gel electrophoresis using a Bio-Rad EXPERION™ system. The modified, unmodified and lipoplexed G-CSF mRNA was also stored in RNASTABLE® (Biomatrica, Inc. San Diego, Calif.) at 40° C. or water at −80° C. or 40° C. for 35 days before being analyzed by gel electrophoresis.
mRNA samples stored at 4° C., 25° C. and 37° C. were stored in 1×TE buffer or the formulation buffer (150 mM sodium chloride, 2 mM calcium chloride, 2 mM phosphate, 0.5 mM EDTA at a pH of 6.5). The mRNA stored at 4° C. was stable to at least 60 days in both the TE and formulation buffer. At 25° C. the mRNA in formulation buffer was stable out to 14 days and the TE buffer was stable out to at least 6 days. Storage of mRNA in the formulation buffer at 37° C. was stable to 6 days compared to the TE buffer which was stable only until 4 days.

Sprague Dawley rats = test: Example 60: G-CSF/Factor IX mRNA IM in rats, serum G-CSF ELISA (Table 94); format: in vivo; details: I.M., 400 ug in 100 ul, 5% sucrose, 8 hours after injection
Method: Protein production of modified mRNA was evaluated by delivering modified G-CSF mRNA or modified Factor IX mRNA to female Sprague Dawley rats (n=6). […] Blood was collected 8 hours after injection and the G-CSF protein level in serum was measured by ELISA.

With “Luciferase: luciferase mRNA, SEQ ID NO: 14, Cap1, fully modified with 5-methylcytosine and pseudouridine” the “Total Flux” value (Balb-C mice; 5 Hours) was 9.94E+05 p/s and the “Total Flux” value (Balb-C mice; 24 Hours) was 7.44E+05 p/s.

B1: EPO: modified mRNA encoding human erythropoietin, SEQ ID NO: 7, Cap1, fully modified with 5-methylcytosine and pseudouridine; LNP NPA-060-1 in Examples 17-22 (nucleic acid)
chain: GGGAAAUAAGAGAGAAAAGAAGAGUAAGAAGAAAUAUAAGAGCCACCAUGGGAGUGCACGAGUGUCCCGCGUGGUUGUGGUUGCUGCUGUCGCUCUUGAGCCUCCCACUGGGACUGCCUGUGCUGGGGGCACCACCCAGAUUGAUCUGCGACUCACGGGUACUUGAGAGGUACCUUCUUGAAGCCAAAGAAGCCGAAAACAUCACAACCGGAUGCGCCGAGCACUGCUCCCUCAAUGAGAACAUUACUGUACCGGAUACAAAGGUCAAUUUCUAUGCAUGGAAGAGAAUGGAAGUAGGACAGCAGGCCGUCGAAGUGUGGCAGGGGCUCGCGCUUUUGUCGGAGGCGGUGUUGCGGGGUCAGGCCCUCCUCGUCAACUCAUCACAGCCGUGGGAGCCCCUCCAACUUCAUGUCGAUAAAGCGGUGUCGGGGCUCCGCAGCUUGACGACGUUGCUUCGGGCUCUGGGCGCACAAAAGGAGGCUAUUUCGCCGCCUGACGCGGCCUCCGCGGCACCCCUCCGAACGAUCACCGCGGACACGUUUAGGAAGCUUUUUAGAGUGUACAGCAAUUUCCUCCGCGGAAAGCUGAAAUUGUAUACUGGUGAAGCGUGUAGGACAGGGGAUCGCUGAUAAGCUGCCUUCUGCGGGGCUUGCCUUCUGGCCAUGCCCUUCUUCUCUCCCUUGCACCUGUACCUCUUGGUCUUUGAAUAAAGCCUGAGUAGGAAG
modifications: Cap1, 5-methylcytosine, pseudouridine
With B1 the “product (EPO) per unit drug (mmRNA)” value (mice [1]; single dose) was 0.14, the “dose splitting factor (DSF)” value (mice [1]; treatment group 2) was 2 and the “product (EPO) per unit drug (mmRNA)” value (mice [1]; treatment group 2) was 0.28. The “dose splitting factor (DSF)” value (mice [1]; treatment group 4) was 7.9 and the “product (EPO) per unit drug (mmRNA)” value (mice [1]; treatment group 4) was 1.1.

B2: G-CSF: modified mRNA encoding human G-CSF, SEQ ID NO: 4, Cap1, fully modified with 5-methylcytosine and pseudouridine; LNP-formulated in Examples 16-22 (nucleic acid)
chain: GGGAAAUAAGAGAGAAAAGAAGAGUAAGAAGAAAUAUAAGAGCCACCAUGGCCGGUCCCGCGACCCAAAGCCCCAUGAAACUUAUGGCCCUGCAGUUGCUGCUUUGGCACUCGGCCCUCUGGACAGUCCAAGAAGCGACUCCUCUCGGACCUGCCUCAUCGUUGCCGCAGUCAUUCCUUUUGAAGUGUCUGGAGCAGGUGCGAAAGAUUCAGGGCGAUGGAGCCGCACUCCAAGAGAAGCUCUGCGCGACAUACAAACUUUGCCAUCCCGAGGAGCUCGUACUGCUCGGGCACAGCUUGGGGAUUCCCUGGGCUCCUCUCUCGUCCUGUCCGUCGCAGGCUUUGCAGUUGGCAGGGUGCCUUUCCCAGCUCCACUCCGGUUUGUUCUUGUAUCAGGGACUGCUGCAAGCCCUUGAGGGAAUCUCGCCAGAAUUGGGCCCGACGCUGGACACGUUGCAGCUCGACGUGGCGGAUUUCGCAACAACCAUCUGGCAGCAGAUGGAGGAACUGGGGAUGGCACCCGCGCUGCAGCCCACGCAGGGGGCAAUGCCGGCCUUUGCGUCCGCGUUUCAGCGCAGGGCGGGUGGAGUCCUCGUAGCGAGCCACCUUCAAUCAUUUUUGGAAGUCUCGUACCGGGUGCUGAGACAUCUUGCGCAGCCGUGAAGCGCUGCCUUCUGCGGGGCUUGCCUUCUGGCCAUGCCCUUCUUCUCUCCCUUGCACCUGUACCUCUUGGUCUUUGAAUAAAGCCUGAGUAGGAAG
modifications: Cap1, 5-methylcytosine, pseudouridine
In the case of B2, the “IFN-alpha / cytokine production” value (human PBMC) is reported as “induced IFN-alpha, TNF-alpha and IP10”, the “Serum Concentration 8-12 hours after administration” value (“Serum Concentration 8-12 hours” below) (mice [2]; IM, 100 ug) is reported as roughly 20 to 80 pg/mL and the “Serum Concentration 8-12 hours” value (mice [2]; IV (LNP), 1 ug) is reported as ~20,000 pg/ml. The “Serum Concentration 8-12 hours” value (mice [2]; IV (LNP), 10 ug) was ~1,000,000 pg/ml, the “Serum Concentration 8-12 hours” value (mice [2]; IV (LNP), 100 ug) was ~5,000,000 pg/ml and the “Serum Concentration 8-12 hours” value (mice [2]; IV (Lipoplex), 100 ug) was roughly 30 pg/mL. For the same molecule, the “Serum Concentration 8-12 hours” value (mice [2]; SC, 100 ug) was roughly 10 to 40 pg/mL, the “G-CSF Protein Expression, Conc” value (mice [2]; dose 10 ug) was 1204.82 ng/mL and the “G-CSF Protein Expression, Conc” value (mice [2]; dose 100 ug) was 4722.20 ng/mL. The “time to cytokine response (IFN-beta, IL-6)” value (BJ fibroblasts) was 2 to 3 days, the IFN-beta (BJ fibroblasts; 6 hours) was 0 pg/mL and the IL-6 (BJ fibroblasts; 6 hours) was 3396 pg/mL. It also gave an IFN-beta (BJ fibroblasts; Day 1) of 38 pg/mL, an IL-6 (BJ fibroblasts; Day 1) of 3870 pg/mL and an IFN-beta (BJ fibroblasts; Day 2) of 1125 pg/mL. It also gave an IL-6 (BJ fibroblasts; Day 2) of 16341 pg/mL, an IFN-beta (BJ fibroblasts; Day 3) of 100 pg/mL and an IL-6 (BJ fibroblasts; Day 3) of 25983 pg/mL. It also gave an IFN-beta (BJ fibroblasts; Day 4) of 75 pg/mL, an IL-6 (BJ fibroblasts; Day 4) of 18922 pg/mL and an IFN-beta (BJ fibroblasts; Day 5) of 213 pg/mL. The IL-6 (BJ fibroblasts; Day 5) was 15928 pg/mL, the “Human G-CSF in Serum” value (C57/BL6 mice; I.M., 100 μg) was 85.6 pg/mL and the “Human G-CSF in Serum” value (C57/BL6 mice; I.V., 100 μg (Luc-unsp 150 μg)) was 31.0 pg/mL. For the same molecule, the “Human G-CSF in Serum” value (C57/BL6 mice; S.C., 100 μg) was 3.9 pg/mL, the “increase in neutrophil count above control” value (mice [3]) was “four to five fold increase” and the freeze/thaw cycles tolerated [4] was 12 cycles. For the same molecule, the “stable out to” value ([4]; stored at 25° C., with or without lipoplex) was 120 h, the “stable out to” value ([4]; stored at 37° C.) was 24 h and the “stable out to” value ([4]; stored at 50° C.) was 6 h. For the same molecule, the “G-CSF protein in rat serum” value (Sprague Dawley rats) was 19.37 pg/mL.
